Starred links: 1 amine or outer side, 2 acyl side, 3 side chain; linkers in the order of their positions; H or OH if unused. Positions of bridges follow the written chain, without caps; N, C: chain ends. Groups on a side chain read outwards from the residue. *: point of attachment. γGlu = O=C(O)[C@H](CCC(=O)[*:2])N[*:1]; Palmitoyl = CCCCCCCCCCCCCCCC(=O)*; Isovaleryl = CC(C)CC(=O)*
B1: Compound 15 (peptide)
peptide: DTHFPCIKFKPRSKGCK
modifications: N-terminal isovaleric acid; Lys 10 carries isoGlu-Isovaleric acid; C-terminal NH2 (amide)
B2: Compound 14 (peptide)
peptide: DTHFPCIKFKPRSKGCK
modifications: N-terminal isovaleric acid; Lys 10 carries isoGlu-Bioitin (biotin); C-terminal NH2 (amide)
B3: Compound 13 (peptide)
peptide: DTHFPCIKFKPRSKGCK
modifications: N-terminal isovaleric acid; Lys 10 carries isoGlu-Myristic acid; C-terminal NH2 (amide)
B4: Compound 6 (peptide)
peptide: DTHFPCIKFKPRSKXCK
modifications: N-terminal isovaleric acid; Lys 10 carries IsoGlu-Palm; Sar (sarcosine) at 15; C-terminal NH2 (amide)
B5: Compound 10 (peptide)
peptide: DTHFPCIKFKPRSKXC
modifications: N-terminal isovaleric acid; Lys 10 carries IsoGlu-Palm; Sar (sarcosine) at 15; C-terminal NH2 (amide)
B6: Compound 18 (peptide)
peptide: DTHFPCIKFKPRSKGCK
modifications: N-terminal isovaleric acid; Lys 10 carries PEG11-Lauric acid; C-terminal NH2 (amide)
B7: Compound 12 (peptide)
peptide: DTHFPCIKFKPRSKGCK
modifications: N-terminal isovaleric acid; Lys 10 carries isoGlu-Lauric acid; C-terminal NH2 (amide)
B8: Compound 19 (peptide)
peptide: DTHFPCIKFKPRSKGCK
modifications: N-terminal isovaleric acid; Lys 10 carries PEG11-Myristic acid; C-terminal NH2 (amide)
B9: Compound 24 (peptide)
peptide: DTHFPCIKFKPRSKXCK
modifications: N-terminal isovaleric acid; Lys 10 carries Ahx-Palm; Sar (sarcosine) at 15; C-terminal NH2 (amide)
B10: RI-Mini Hepcidin (peptide)
peptide: FICIPFHTD
modifications: all residues are D-amino acids (retro inverse of mini-hepcidin); C-terminal NH2 (amide)
B11: Compound 32 (peptide)
peptide: DTHFPCIKFXX
modifications: N-terminal isovaleric acid on each subunit; the two subunits are joined by IDA-[βala] that carries Peg11-Palm
B12: Compound 31 (peptide)
peptide: DTHFPCIKFXX
modifications: N-terminal isovaleric acid on each subunit; the two subunits are joined by IDA-[βala] that carries Peg2-Palm

What follows are binders tested against T1, human ferroportin (SLC40A1) fused in frame with GFP, stably expressed in HEK293 cells (human, UniProt Q9NP59 1-571) (assay: cell-based or functional assay).
T1 sequence (looked up): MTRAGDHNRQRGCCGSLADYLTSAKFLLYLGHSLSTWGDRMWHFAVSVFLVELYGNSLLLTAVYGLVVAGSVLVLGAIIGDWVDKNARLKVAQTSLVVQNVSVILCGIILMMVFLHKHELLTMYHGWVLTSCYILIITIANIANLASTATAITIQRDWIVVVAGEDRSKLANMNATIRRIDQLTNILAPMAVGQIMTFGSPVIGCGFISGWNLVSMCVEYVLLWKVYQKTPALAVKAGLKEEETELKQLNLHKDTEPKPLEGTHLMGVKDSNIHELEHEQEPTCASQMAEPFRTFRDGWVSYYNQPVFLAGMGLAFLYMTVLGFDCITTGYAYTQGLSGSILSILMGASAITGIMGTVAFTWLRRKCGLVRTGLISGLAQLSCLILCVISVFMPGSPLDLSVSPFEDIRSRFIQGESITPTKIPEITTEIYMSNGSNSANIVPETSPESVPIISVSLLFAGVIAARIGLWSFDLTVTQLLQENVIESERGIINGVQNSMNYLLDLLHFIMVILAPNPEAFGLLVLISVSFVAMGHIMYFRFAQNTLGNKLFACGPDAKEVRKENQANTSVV

Going from DTHFPCIKFKPRSKGCK (N-terminal isovaleric acid; Lys 10 carries Ac (acetyl); C-terminal NH2 (amide)) [Compound 25] to B1, the “HEK-GFP cell based assay: potency EC50 (loss of ferroportin-GFP fluorescence)” value rises from 14 nM to 26 nM (1.9-fold).

Isovaleryl-DTHFPCKKFK([γGlu-Palmitoyl])PRSKGCK-NH2 (disulfide 6-16 (inferred)) [Compound 11] and DTHFPCIKFKPRSKGCK (N-terminal isovaleric acid; Lys 10 carries PEG8; C-terminal NH2 (amide)) [Compound 21] are within 1.5-fold of each other in “HEK-GFP cell based assay: potency EC50 (loss of ferroportin-GFP fluorescence)” value: 22 nM for the first, 32 nM for the second.

First: B2
Second: B3
The “HEK-GFP cell based assay: potency EC50 (loss of ferroportin-GFP fluorescence)” value of the first is 2.9-fold higher: 29 nM for the first, 10 nM for the second.

First: DTHFPCIKFKPRSKGCK (N-terminal isovaleric acid; Lys 10 carries PEG2-Palm; C-terminal NH2 (amide)) [Compound 16]
Second: B4
The “HEK-GFP cell based assay: potency EC50 (loss of ferroportin-GFP fluorescence)” value of the first is 3.3-fold higher: 36 nM for the first, 11 nM for the second.

DTHFPCIKFKPRSKGC (N-terminal isovaleric acid; Lys 10 carries IsoGlu-Palm; C-terminal NH2 (amide)) [Compound 9] and B5 are within 1.5-fold of each other in “HEK-GFP cell based assay: potency EC50 (loss of ferroportin-GFP fluorescence)” value: 11 nM for the first, 10 nM for the second.

B6 and DTHFPCIKFKPRSKGCK (N-terminal isovaleric acid; Lys 10 carries PEG11-Palm; C-terminal NH2 (amide)) [Compound 17] are within 1.5-fold of each other in “HEK-GFP cell based assay: potency EC50 (loss of ferroportin-GFP fluorescence)” value: 36 nM for the first, 30 nM for the second.

B7 and DTHFPCIKFKPRSKGCK (N-terminal isovaleric acid; Lys 10 carries Palm; C-terminal NH2 (amide)) [Compound 20] are within 1.5-fold of each other in “HEK-GFP cell based assay: potency EC50 (loss of ferroportin-GFP fluorescence)” value: 14 nM for the first, 19 nM for the second.

First: B8
Second: B9
The “HEK-GFP cell based assay: potency EC50 (loss of ferroportin-GFP fluorescence)” value of the first is 3-fold higher: 30 nM for the first, 10 nM for the second.

For DTHFPCIKFKPRSKGCK (N-terminal isovaleric acid; Lys 10 carries Ahx-Palm; C-terminal NH2 (amide)) [Compound 22], the “HEK-GFP cell based assay: potency EC50 (loss of ferroportin-GFP fluorescence)” value was 18 nM.

Molecular target: T1, human ferroportin (SLC40A1) fused in …
Test: cell-based or functional assay
Remark: another data set of the same source

Compared with B10, H-DTHFPICIF-NH2 [Mini-Hepcidin 1-9] is lower in “Potency EC50 (nM), ferroportin degradation in ferroportin-GFP HEK293 cells” value: greater than 10000 nM for the first, 712 nM for the second.

Molecular target: T1, human ferroportin (SLC40A1) fused in …
Test: cell-based or functional assay
Remark: another data set of the same source

Going from B11 to B12, the “HEK-GFP cell based assay: potency EC50 (loss of ferroportin-GFP fluorescence)” value falls from 13 nM to 8 nM (1.6-fold).

Isovaleryl-DTHFPCIRFK([γGlu-Octanoic acid])-NH2 (also: dimer: two subunits joined at their C-termini through the Lys linker) [Compound 30] was tested, and the “HEK-GFP cell based assay: potency EC50 (loss of ferroportin-GFP fluorescence)” value was 18 nM.

— US20190002503A1 (published 2019)
